Assay results published in patent US20230374526A1, “FORSKOLIN-INDUCIBLE PROMOTERS AND HYPOXIA-INDUCIBLE PROMOTERS” (ASKLEPIOS BIOPHARMACEUTICAL, INC., priority 2020, published 2023).

B1: FLP-01: synthetic forskolin-inducible promoter, SEQ ID NO: 42; 8×AP1(1) TFBS with G6PC minimal promoter (nucleic acid)
DNA: TGAGTCAGATGATGCGTAGCTAGTAGTTGAGTCAGATGATGCGTAGCTAGTAGTTGAGTCAGATGATGCGTAGCTAGTAGTTGAGTCAGATGATGCGTAGCTAGTAGTTGAGTCAGATGATGCGTAGCTAGTAGTTGAGTCAGATGATGCGTAGCTAGTAGTTGAGTCAGATGATGCGTAGCTAGTAGTTGAGTCAGTAGTCGTATGCTGATGCGCAGTTAGCGTAGCTGAGGTACCGTCGACGATATCGGATCCGGGCATATAAAACAGGGGCAAGGCACAGACTCATAGCAGAGCAATCACCACCAAGCCTGGAATAACTGCAGCCACC
modifications: Synp-FLP-01
notes: 8×AP1(1) TFBS with G6PC minimal promoter
B2: FMP-02: synthetic forskolin-inducible promoter, SEQ ID NO: 41; 8×AP1(1) TFBS with MinTK minimal promoter (nucleic acid)
DNA: TGAGTCAGATGATGCGTAGCTAGTAGTTGAGTCAGATGATGCGTAGCTAGTAGTTGAGTCAGATGATGCGTAGCTAGTAGTTGAGTCAGATGATGCGTAGCTAGTAGTTGAGTCAGATGATGCGTAGCTAGTAGTTGAGTCAGATGATGCGTAGCTAGTAGTTGAGTCAGATGATGCGTAGCTAGTAGTTGAGTCAGTAGTCGTATGCTGATGCGCAGTTAGCGTAGCTGAGGTACCGTCGACGATATCGGATCCTTCGCATATTAAGGTGACGCGTGTGGCCTCGAACACCGAGCGACCCTGCAGCGACCCGCTTAA
modifications: Synp-FMP-02
notes: 8×AP1(1) TFBS with MinTK minimal promoter

How the values were obtained:
CHO-GS-KSV1 cell line = test: SEAP expression from forskolin-inducible promoters in stably transfected cell line, forskolin or NKH477 induction; format: cell-based, chinese hamster; details: for Promoter strength ranking: SEAP, stably transfected CHO-GS-KSV1
Method: The forskolin-inducible promoters were then tested in a stably transfected CHO-GS-KSV1 cell line.
Cell suspensions of 6×10^5 cells per mL were incubated on an orbital shaker set at 8% CO2, 20% O2, 37° C., 85% relative humidity and 140 rpm overnight. 2.86×10^7 cells were centrifuged at 200 g for 3 minutes. Media was then aspirated and cell pellet resuspended in 2 mL fresh CD-CHO media to obtain a concentration of 1.43×10^7 cells per mL. 700 μL of cell suspension was added to each of two electroporation cuvettes each containing […] of linearised DNA in 100 μL of sterile TE buffer (Thermofisher, 12090015). Each cuvette was electroporated, delivering a single pulse of 300V, 900 μF with resistance to infinity. Immediately after delivery of pulse electroplated cells were transferred to Erlenmeyer 125 mL flask containing 20 mL of CD-CHO media pre-warmed to 37° C. Electroporated cells from two cuvettes are combined into a single 125 mL flask to generate one pool of cells. Cells are cultured on an orbital shaker set at 8% CO2, 20% O2, 37° C., 85% relative humidity and 140 rpm. Cells are transferred to fresh CD-CHO media 24 hours after transfection and cell cultures monitored and given fresh CD-CHO media every 2-4 days. Usually after about 10-14 days cell numbers will be high enough to start passaging. […]
The promoter activity and inducibility of FMP-02, FORCSV-10, FOR-CMC-009, and FLP-01 were also tested in the stably transfected CHO-GS-KSV1 cell line. […] After this point, the SEAP activity in the medium was assessed as described below.
SEAP Reporter Gene Assay, chemiluminescent (Roche, CAT #11 779 842 001) was used to measure SEAP activity as per the manufacturer's protocol. […] The signal is then read at 477 nm and compared to a calibration curve. […]

HEK-293 cells = test: Optimum inducer concentration to induce expression; format: cell-based, human
[1] = cited from earlier work
HEK293-F cells = test: Luciferase expression from forskolin-inducible promoters, transient transfection, forskolin induction; format: cell-based, human; details: transiently transfected HEK293-F, 20 μM forskolin
Method: Luciferase readouts were normalised to β-galactosidase to produce normalised relative luminometer units (RLUs). β-galactosidase containing pcDNA6 plasmid was used as internal control for transfection efficiency (Thermofisher, V22020). β-galactosidase activity was measured as per manufacturer's instructions (Mammalian pGalactosidase Assay Kit, 75707/75710, Thermo Scientific) using 25 μl of lysate. 25 μl of lysate was transferred into a microplate well and mixed with 25 μl of β-galactosidase Assay Reagent, equilibrated to room temperature. The mixture was incubated at 37° C. for 30 min and absorbance measured at 405 nm.
The tested promoters were synthesised directly upstream of the ATG of PM-RQ plasmid and the suspension cell lines were transiently transfected with the PM-RQ plasmid.
40 ml of cells were grown in a 250 ml vented Erlenmeyer flask (Sigma-Aldrich CLS431144) at 37° C., 20% O2, 8% CO2 with agitation at 100 rpm. Cells were seeded as described in the manufacturer's instructions (300,000 cells/ml). HEK293-F were obtained from Thermofisher, R79007.
One day before transfection, the cells were counted using a haemocytometer and split to 500,000 cells/ml. […]
24 hours after transfection, the promoters were induced by addition of 20 μM forskolin and luciferase activity was measured 0, 3, 5 and 24 hours after induction. Luciferase activity was measured as described below. […]

Molecule	Potency as inducer of the promoters compared with forskolin (CHO-GS-KSV1 cell line; 7.2 μM NKH477 vs 20 μM forskolin)	Concentration determined to be optimum to induce expression (HEK-293 cells)	Water solubility [1]	Promoter strength ranking (CHO-GS-KSV1 cell line)	Promoter strength ranking (fold induction) (HEK293-F cells)
C=C[C@@]1(C)CC(=O)[C@]2(O)[C@@]3(C)[C@@H](O)CCC(C)(C)[C@@H]3[C@H](OC(=O)CCN(C)C)[C@H](OC(C)=O)[C@@]2(C)O1.Cl [NKH 477]	slightly more potent inducer	about 8 μM	water-soluble		
B1				strongest	strongest
B2				weakest	weakest
